Test results taken from the MegaScale stability set (Tsuboyama et al. 2023).

B1: EHEE_rd4_0726 (parent)
chain: DIEITTNGEEDAKRVIKELQKRNLEYHIEVHGNQWVIKVR

Variants of: B1
Experiment: folding stability dG (cDNA display proteolysis); higher = more stable
Conditions: PBS, room temperature

Folding stability dG [kcal/mol], by site and new letter:
K38: L 2.34 | T 2.77 | Q 1.62 | G 0.141 | A 1.32 | M 2.16 | C 2.33 | H 2.39 | S 1.94 | D -0.365
G8: C 2.33 | E 1.77 | P 0.219 | S 3.27 | V 1.92 | N 3.23 | I 1.95 | Y 1.92 | M 1.69
I28: L 2.02 | S 0.224 | F 1.48 | Y 1.48 | V 2.53 | W 1.24 | T 1.09 | H -0.075 | E -0.159 | A 1.04
Q20: K 2.49 | L 2.39 | S 1.9 | C 1.98 | I 2.77 | R 2.56 | M 2.4 | W 1.79 | N 2.22
I4: Q 0.094 | W 1.99 | S 0.002 | Y 2.15 | K 0.22 | P 0.107 | E 0.017 | L 1.66 | R 0.4
L24: W 2.05 | N 0.681 | Y 1.89 | R 1.65 | P -0.114 | F 1.81 | M 2.19 | Q 1.45 | K 1.67 | D 0.415 | I 2.46
T5: E 1.66 | W 3.48 | Q 2 | V 3.03 | F 2.77 | P 1.59
K21: L 2.65 | N 2.21 | P 0.042 | G 1.86
E29: I 2.32 | G 0.743 | H 1.78 | T 2.33 | V 2.3 | L 1.91 | M 1.93 | F 2.27 | D 1.56 | A 1.71
V30: E 1.16 | G 0.63 | L 1.86 | R 2.43 | M 2.01 | T 1.71 | W 1.81 | N 1.57
N33: Q 2.09 | K 1.92 | D 2.5 | A 2 | F 2.06 | S 2.22 | I 1.66 | V 1.76
V39: M 1.44 | L 1.98 | K -0.993 | Y 2.08 | R -0.082 | F 2.15
L19: K -0.438 | V 0.98 | C 1.59
T6: A 2.62 | N 0.494 | W 1.04 | K 1.22
H31: M 2.32 | N 2.42 | F 2.36 | L 2.27 | K 2.5 | G 0.973 | A 1.88
I37: V 1.5 | L 1.21
E18: R 2.01 | I 2.68 | F 2.73 | G 1.69 | K 1.81 | M 2.86 | N 1.86 | S 2.04 | Y 2.87
E9: D 1.5 | Q 1.92 | M 2.12 | P 2.46 | W 3.31 | S 1.86 | K 2.06 | N 1.36 | Y 2.78 | G 1.76 | L 2.36 | H 1.92
A12: G 1.43 | M 2.51 | V 1.74 | R 1.17 | I 1.49 | K 1.06 | E -0.056 | Q 0.813 | Y 1.82
G32: E 1.9 | V 1.08 | I 1.21 | M 1.43 | Q 1.59 | T 1 | L 1.38 | N 1.94 | A 1.44 | D 1.85 | Y 1.19 | F 1.51
Y26: T 0.301 | V 1.42 | F 2.54 | G 0.722 | I 1.53 | S 0.005 | A 1.07 | W 1.95 | P 0.491
